Measurements: paper PMC7404038, “Chaperone-Like Activity of HSPB5: The Effects of Quaternary Structure Dynamics and Crowding” (International Journal of Molecular Sciences, 2020)

B2: glycogen phosphorylase b from rabbit skeletal muscles (enzyme, UniProt P00489 1-843, looked up)
chain: MSRPLSDQEKRKQISVRGLAGVENVTELKKNFNRHLHFTLVKDRNVATPRDYYFALAHTVRDHLVGRWIRTQQHYYEKDPKRIYYLSLEFYMGRTLQNTMVNLALENACDEATYQLGLDMEELEEIEEDAGLGNGGLGRLAACFLDSMATLGLAAYGYGIRYEFGIFNQKICGGWQMEEADDWLRYGNPWEKARPEFTLPVHFYGRVEHTSQGAKWVDTQVVLAMPYDTPVPGYRNNVVNTMRLWSAKAPNDFNLKDFNVGGYIQAVLDRNLAENISRVLYPNDNFFEGKELRLKQEYFVVAATLQDIIRRFKSSKFGCRDPVRTNFDAFPDKVAIQLNDTHPSLAIPELMRVLVDLERLDWDKAWEVTVKTCAYTNHTVLPEALERWPVHLLETLLPRHLQIIYEINQRFLNRVAAAFPGDVDRLRRMSLVEEGAVKRINMAHLCIAGSHAVNGVARIHSEILKKTIFKDFYELEPHKFQNKTNGITPRRWLVLCNPGLAEIIAERIGEEYISDLDQLRKLLSYVDDEAFIRDVAKVKQENKLKFAAYLEREYKVHINPNSLFDVQVKRIHEYKRQLLNCLHVITLYNRIKKEPNKFVVPRTVMIGGKAAPGYHMAKMIIKLITAIGDVVNHDPVVGDRLRVIFLENYRVSLAEKVIPAADLSEQISTAGTEASGTGNMKFMLNGALTIGTMDGANVEMAEEAGEENFFIFGMRVEDVDRLDQRGYNAQEYYDRIPELRQIIEQLSSGFFSPKQPDLFKDIVNMLMHHDRFKVFADYEEYVKCQERVSALYKNPREWTRMVIRNIATSGKFSSDRTIAQYAREIWGVEPSRQRLPAPDEKIP
notes: glycogen phosphorylase, muscle form, b form, rabbit; subunit 97.4 kDa as printed; In the assays partially unfolded by heating at 48 °C; also called Phb; muscle glycogen phosphorylase b

Assays:
[1] = target: the molecule itself; assay: AUC; sedimentation velocity, Phb 0.4 mg/mL, HSPB5 0.26 mg/mL and their mixture, Hepes buffer with PEG 20 kDa 25 mg/mL and PVP 25 kDa 12.5 mg/mL (mixed crowding), 48 °C, 48,000 rpm
[2] = target: T1, Ca2+-depleted α-lactalbumin (UniProt P00711 20-142); assay: cell-based or functional assay
T1 sequence (looked up): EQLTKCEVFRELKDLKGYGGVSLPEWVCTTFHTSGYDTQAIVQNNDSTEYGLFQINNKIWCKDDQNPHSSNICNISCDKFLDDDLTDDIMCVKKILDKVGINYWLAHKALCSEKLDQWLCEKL

[3] = target: B2; assay: cell-based or functional assay
[4] = target: the molecule itself; assay: AUC; sedimentation velocity, Phb 0.5 mg/mL with HSPB5 0, 0.025 or 0.075 mg/mL, 30 mM Hepes, pH 6.8, 0.1 M NaCl, 0.2 mM EDTA, 48 °C, 48,000 rpm; masses by the Svedberg equation with diffusion coefficients from DLS

B1: Human full-length untagged HSPB5 (αB-crystallin) (natural protein, UniProt P02511 1-175, looked up)
chain: MDIAIHHPWIRRPFFPFHSPSRLFDQFFGEHLLESDLFPTSTSLSPFYLRPPSFLRAPSWFDTGLSEMRLEKDRFSVNLDVKHFSPEELKVKVLGDVIEVHGKHEERQDEHGFISREFHRKYRIPADVDPLTITSSLSSDGVLTVNGPRKQVSGPERTIPITREEKPAVTAAPKK
notes: αB-crystallin (HSPB5), human, full length, untagged; subunit mass 20.2 kDa as printed; Polydisperse oligomer whose size depends on concentration, temperature and crowding; the preparation was a gift of N. Sluchanko; also called the chaperone; source: expressed and purified as described earlier [104]
- binding result [1]: binds
- initial stoichiometry S0 of the HSPB5-αLa complexes from suppression of DTT-induced aggregation of αLa at 37 °C (DLS; (Kagg/Kagg,0)^1/b versus [HSPB5]/[αLa]) [2]: 0.011 HSPB5 subunits per αLa molecule (molar ratio)
- stoichiometry S0 of the chaperone-target protein complex from suppression of thermal aggregation of Phb at 48 °C (DLS; Kagg/Kagg,0 = 1 − x/S0) [3]: 0.31 HSPB5 subunits per Phb monomer (molar ratio)

Binder: B2
- stoichiometry N [4]: 2
